Measured values: PMC3223204, “Implantation Serine Proteinase 1 Exhibits Mixed Substrate Specificity that Silences Signaling via Proteinase-Activated Receptors” (PLoS ONE, 2011)

Target: T1, human PAR1 (Homo sapiens, UniProt P25116, INS26FLNCCPGCCMEPA)
T1 construct: expressed in transfected cells; host or cells: COS-1
T1 sequence (P25116 with tags, fused parts or gaps limits assumed): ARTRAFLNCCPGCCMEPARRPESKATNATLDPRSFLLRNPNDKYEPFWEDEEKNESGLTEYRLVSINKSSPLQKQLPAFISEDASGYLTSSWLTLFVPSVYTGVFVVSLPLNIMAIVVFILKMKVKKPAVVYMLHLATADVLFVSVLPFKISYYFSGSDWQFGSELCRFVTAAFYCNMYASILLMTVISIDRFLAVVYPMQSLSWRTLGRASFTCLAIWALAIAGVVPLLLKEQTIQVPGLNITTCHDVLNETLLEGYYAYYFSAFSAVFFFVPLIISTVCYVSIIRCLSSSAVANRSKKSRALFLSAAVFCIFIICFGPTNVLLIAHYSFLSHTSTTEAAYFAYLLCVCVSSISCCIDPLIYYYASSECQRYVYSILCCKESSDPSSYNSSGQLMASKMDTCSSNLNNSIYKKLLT
Assay: Release of N-terminal BAB motif from PAR1 on COS-1 cells
Assay type: cell-based
Settings: 0.1 and 0.5 units per ml, 37°C, 30 minutes
Text: The biarsenical fluorochrome binding domain (BAB), containing a tetra-cysteine motif, […] for PAR1, […] for PAR2 and […] for PAR4 was inserted into the receptor N-terminal domains by introducing corresponding oligonucleotides just downstream of the signal peptide of PARs, after A26 for human PAR1, Q27 for human PAR2 and V25 for human PAR4. The PAR DNA constructs containing the N-terminal BAB domain and a YFP C-terminal fluorochrome tag were cloned in pCDNA3.1+ at the restriction enzyme sites between Eco RI and Xba I. COS-1 cells obtained from ATCC (Manassas, VA USA) were transected with the PAR constructs with the FuGENE6 transfection reagent (Roche Applied Bioscience). The expression level of the expressed receptor was quantified using a fluorescence plate reader, (Victor 4X, Perkin-Elmer), and confocal microscopy was used to monitor the receptor location by visualizing the receptor YFP tag. […] Then, the peptide(s) containing the receptor BAB tetracysteine motif released by proteinases from the receptor N-terminus into the cell culture supernatant was quantified using a Victor X4 fluorescent plate reader with an excitation wavelength of 540 nm and an emission wavelength monitored at 615 nm. […]

B1: ISP1: recombinant implantation serine proteinase 1 expressed in Pichia pastoris, also known as Mouse Prss28 (protein, UniProt Q924N9 27-274, looked up)
Serine protease 28: KPVGIVGGQRTPPGKWPWQVSLRMYSYEVNSWVHICGGSIIHPQWILTAAHCIQSQDADPAVYRVQVGEVYLYKEQELLNISRIIIHPDYNDVSKRFDLALMQLTALLVTSTNVSPVSLPKDSSTFDSTDQCWLVGWGNLLQRVPLQPPYQLHEVKIPIQDNKSCKRAYRKKSSDEHKAVAIFDDMLCAGTSGRGPCFGDSGGPLVCWKSNKWIQVGVVSKGIDCSNNLPSIFSRVQSSLAWIHQHIQ
modifications: recombinant, Pichia pastoris-expressed
notes: recombinant implantation serine proteinase 1 expressed in Pichia pastoris, also known as Mouse Prss28
B1 was tested, and the “Release of PAR1 N-terminal BAB domain (PAR cleavage activity)” value was “significant concentration-dependent PAR cleavage activity”.
